The source of these data is publication PMC4070431.

Experiment [1] deals with human natriuretic peptide receptor-A (NPR-A) (human) (UniProt P16066).
In experiment [2] the target is human natriuretic peptide receptor-B (NPR-B) (human) (UniProt P20594).
Experiment [3] addresses human natriuretic peptide receptor-A (NPR-A) (human) (UniProt P16066). Briefly: radioligand binding.
Experiment [4] deals with human natriuretic peptide receptor-C (NPR-C) (human) (UniProt P17342). Nature of the experiment: radioligand binding.
human natriuretic peptide receptor-C (NPR-C) (human), sequence (P17342 27-541): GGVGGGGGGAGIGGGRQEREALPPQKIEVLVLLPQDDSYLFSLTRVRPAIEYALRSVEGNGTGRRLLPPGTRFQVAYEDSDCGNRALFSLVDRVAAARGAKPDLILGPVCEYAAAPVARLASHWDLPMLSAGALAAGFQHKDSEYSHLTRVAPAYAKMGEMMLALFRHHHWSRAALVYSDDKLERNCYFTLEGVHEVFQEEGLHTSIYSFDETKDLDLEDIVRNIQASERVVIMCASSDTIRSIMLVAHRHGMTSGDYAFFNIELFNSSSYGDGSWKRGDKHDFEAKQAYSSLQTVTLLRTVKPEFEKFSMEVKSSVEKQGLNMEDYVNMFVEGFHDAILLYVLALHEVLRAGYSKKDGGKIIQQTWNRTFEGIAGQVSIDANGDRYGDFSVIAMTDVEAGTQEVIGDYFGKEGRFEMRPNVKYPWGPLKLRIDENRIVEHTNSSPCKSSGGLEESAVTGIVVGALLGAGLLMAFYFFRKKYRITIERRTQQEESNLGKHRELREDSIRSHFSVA
Experiment [5] deals with non-selective somatostatin receptor (sst).

human natriuretic peptide receptor-A (NPR-A) (human), sequence (P16066 33-1061): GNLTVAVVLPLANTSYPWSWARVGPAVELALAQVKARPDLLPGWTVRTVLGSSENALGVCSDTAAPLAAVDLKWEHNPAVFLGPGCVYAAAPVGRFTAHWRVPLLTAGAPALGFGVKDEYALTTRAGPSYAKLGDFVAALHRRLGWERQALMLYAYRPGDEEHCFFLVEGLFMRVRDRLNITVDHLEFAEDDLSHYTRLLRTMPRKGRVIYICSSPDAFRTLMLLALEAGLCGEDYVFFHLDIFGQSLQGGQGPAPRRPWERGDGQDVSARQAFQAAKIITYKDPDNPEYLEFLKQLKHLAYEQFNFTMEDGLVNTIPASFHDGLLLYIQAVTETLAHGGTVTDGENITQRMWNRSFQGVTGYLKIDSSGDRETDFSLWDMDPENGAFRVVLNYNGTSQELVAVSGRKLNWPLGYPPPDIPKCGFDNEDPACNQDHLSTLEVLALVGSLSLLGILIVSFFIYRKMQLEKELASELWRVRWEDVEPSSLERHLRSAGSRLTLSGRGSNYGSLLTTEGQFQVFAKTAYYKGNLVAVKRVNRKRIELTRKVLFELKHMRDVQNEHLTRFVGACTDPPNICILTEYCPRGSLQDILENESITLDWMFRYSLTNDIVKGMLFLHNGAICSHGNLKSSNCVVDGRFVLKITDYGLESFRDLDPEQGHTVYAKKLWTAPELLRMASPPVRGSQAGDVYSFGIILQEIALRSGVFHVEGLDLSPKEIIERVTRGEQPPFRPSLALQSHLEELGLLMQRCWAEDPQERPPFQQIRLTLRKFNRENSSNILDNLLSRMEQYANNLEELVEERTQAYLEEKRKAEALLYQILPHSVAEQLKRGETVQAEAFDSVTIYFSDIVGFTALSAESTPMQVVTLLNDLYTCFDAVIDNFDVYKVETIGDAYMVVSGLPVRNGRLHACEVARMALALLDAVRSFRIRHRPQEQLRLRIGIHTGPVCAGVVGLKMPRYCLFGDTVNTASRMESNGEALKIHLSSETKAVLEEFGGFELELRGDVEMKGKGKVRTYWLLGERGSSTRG
human natriuretic peptide receptor-B (NPR-B) (human), sequence (P20594 23-1047): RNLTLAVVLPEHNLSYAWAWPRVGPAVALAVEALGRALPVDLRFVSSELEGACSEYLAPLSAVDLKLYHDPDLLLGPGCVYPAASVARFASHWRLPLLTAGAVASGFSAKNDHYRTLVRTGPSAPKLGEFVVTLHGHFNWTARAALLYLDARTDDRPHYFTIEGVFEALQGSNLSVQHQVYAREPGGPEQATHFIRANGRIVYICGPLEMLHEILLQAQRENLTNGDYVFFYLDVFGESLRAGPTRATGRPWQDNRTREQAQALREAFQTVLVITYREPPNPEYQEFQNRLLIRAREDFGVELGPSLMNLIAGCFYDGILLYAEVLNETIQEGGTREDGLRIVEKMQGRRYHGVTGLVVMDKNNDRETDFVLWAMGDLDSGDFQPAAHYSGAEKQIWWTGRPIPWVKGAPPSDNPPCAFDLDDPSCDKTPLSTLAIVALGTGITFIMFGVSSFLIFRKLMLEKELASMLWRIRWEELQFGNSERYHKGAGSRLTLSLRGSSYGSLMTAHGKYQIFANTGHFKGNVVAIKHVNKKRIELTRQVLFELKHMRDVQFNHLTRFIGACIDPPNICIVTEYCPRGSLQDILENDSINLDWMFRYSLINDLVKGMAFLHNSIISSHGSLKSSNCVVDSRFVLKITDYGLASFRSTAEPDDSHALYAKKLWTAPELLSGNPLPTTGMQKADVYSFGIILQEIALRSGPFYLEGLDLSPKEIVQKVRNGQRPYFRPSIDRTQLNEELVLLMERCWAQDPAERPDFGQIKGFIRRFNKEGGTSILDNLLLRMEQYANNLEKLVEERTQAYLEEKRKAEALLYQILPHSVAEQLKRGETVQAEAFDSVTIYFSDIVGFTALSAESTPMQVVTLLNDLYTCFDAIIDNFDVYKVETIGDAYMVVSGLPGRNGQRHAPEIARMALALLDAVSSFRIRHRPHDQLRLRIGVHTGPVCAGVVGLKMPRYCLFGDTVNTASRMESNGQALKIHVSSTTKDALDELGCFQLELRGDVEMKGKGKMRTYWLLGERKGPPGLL

As a reminder, the Ki is the dissociation constant of the complex between target and ligand, obtained from inhibition or displacement. A higher Ki goes with lower affinity. As to “human brain natriuretic peptide (hBNP) (ligand)”, in experiment [1], the cGMP generation in HEK293 cells expressing the receptor, EC50 amounted to 2 nM and the cGMP generation in HEK293 cells expressing the receptor, Emax turned out to be 96 % hANP. Besides, the cGMP generation in HEK293 cells expressing the receptor (up to 10 µM), Emax in experiment [2] is 9 % hCNP. Further, the inhibition constant (Ki) in experiment [3] came out at 3 nM. For the same substance, the Ki in experiment [4] amounted to 0.7 nM.

With “PL-3994 (Hept-cyclo(Cys-His-Phe-D-Ala-Gly-Arg-D-Nle-Asp-Arg-Ile-Ser-Cys)-Tyr-[Arg mimetic]-NH2) (peptide)”, the Ki in experiment [5] came to 4200 nM.
